Where two headings read alike, the source gives them in different places.
Tests used:
CD16 = CD16 (UniProt P08637 17-254, limits assumed); experiment: cell-based or functional assay
human CXCR5 [1] = molecular target: T1, human CXCR5 (human, UniProt P32302 1-372); experiment: binding to hCXCR5, Exp 1 (assay not given)
T1 construct: whole, on cells; Always presented on cells; one entry is used for all cell lines; also called hCXCR5; C-X-C chemokine receptor type 5
T1 sequence (looked up): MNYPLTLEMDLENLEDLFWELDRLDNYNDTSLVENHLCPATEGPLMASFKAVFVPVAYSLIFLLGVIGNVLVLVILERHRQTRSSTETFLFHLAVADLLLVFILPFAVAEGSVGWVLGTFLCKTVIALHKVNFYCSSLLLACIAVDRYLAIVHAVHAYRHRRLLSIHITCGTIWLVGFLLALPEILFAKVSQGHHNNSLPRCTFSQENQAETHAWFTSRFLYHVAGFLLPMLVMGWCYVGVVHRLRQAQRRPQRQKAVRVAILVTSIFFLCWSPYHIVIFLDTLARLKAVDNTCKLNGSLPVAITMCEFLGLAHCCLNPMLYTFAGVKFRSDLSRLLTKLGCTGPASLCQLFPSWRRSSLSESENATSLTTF

human CXCR5 [2] = molecular target: T1, human CXCR5; experiment: binding to hCXCR5, Exp 2 (assay not given)
human CXCR3 [3] = molecular target: T2, human CXCR3 (human, UniProt P49682 1-368, limits assumed); experiment: specificity assay by flow cytometry
T2 construct: also called hCXCR3
T2 sequence (looked up): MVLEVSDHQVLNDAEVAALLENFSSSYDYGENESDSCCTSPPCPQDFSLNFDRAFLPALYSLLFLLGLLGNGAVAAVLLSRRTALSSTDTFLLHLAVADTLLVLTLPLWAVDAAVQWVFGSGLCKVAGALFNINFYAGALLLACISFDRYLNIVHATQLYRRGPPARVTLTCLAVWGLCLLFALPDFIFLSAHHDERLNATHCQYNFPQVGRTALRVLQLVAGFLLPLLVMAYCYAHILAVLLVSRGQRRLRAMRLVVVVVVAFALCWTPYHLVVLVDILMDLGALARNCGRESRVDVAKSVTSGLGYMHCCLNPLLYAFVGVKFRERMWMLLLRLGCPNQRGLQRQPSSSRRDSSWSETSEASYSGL

murine CXCR5 [4] = molecular target: T3, murine CXCR5 (mouse, UniProt Q04683 1-374); experiment: flow cytometry, transiently transfected cells
T3 construct: whole, on cells; also called mouse CXCR5 ortholog
T3 sequence (looked up): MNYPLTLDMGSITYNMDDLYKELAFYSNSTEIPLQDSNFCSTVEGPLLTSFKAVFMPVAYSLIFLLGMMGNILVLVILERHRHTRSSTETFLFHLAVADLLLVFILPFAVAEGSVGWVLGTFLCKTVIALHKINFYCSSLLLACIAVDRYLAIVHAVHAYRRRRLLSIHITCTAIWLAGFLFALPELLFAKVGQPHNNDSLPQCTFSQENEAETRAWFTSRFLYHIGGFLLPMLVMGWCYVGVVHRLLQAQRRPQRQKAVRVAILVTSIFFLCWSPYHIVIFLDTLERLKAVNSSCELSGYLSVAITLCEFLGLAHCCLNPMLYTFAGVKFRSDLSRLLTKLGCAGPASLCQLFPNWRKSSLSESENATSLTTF

cynomolgus CXCR5 = molecular target: T4, cynomolgus CXCR5 (cynomolgus monkey, UniProt G8F5K4 1-372); experiment: flow cytometry on cells transiently transfected with cynomolgus CXCR5
T4 construct: whole, on cells; also called monkey CXCR5 ortholog
T4 sequence: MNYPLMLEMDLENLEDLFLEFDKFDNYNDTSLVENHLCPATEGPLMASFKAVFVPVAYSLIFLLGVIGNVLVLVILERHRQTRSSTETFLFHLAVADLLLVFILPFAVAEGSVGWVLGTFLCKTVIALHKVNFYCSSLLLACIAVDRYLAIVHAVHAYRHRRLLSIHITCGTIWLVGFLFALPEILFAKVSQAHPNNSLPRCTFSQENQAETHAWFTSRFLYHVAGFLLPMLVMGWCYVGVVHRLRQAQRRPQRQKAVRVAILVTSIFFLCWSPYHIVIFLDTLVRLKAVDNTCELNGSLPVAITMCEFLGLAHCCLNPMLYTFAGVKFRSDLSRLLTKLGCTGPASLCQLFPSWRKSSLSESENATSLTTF

human CXCR5 [5] = molecular target: T1, human CXCR5; experiment: flow cytometry on an adherent stable cell line expressing hCXCR5, MFI normalized on the benchmark MFI
Protocol: In order to test the binding capacity to CXCR5, six chimeric monoclonal antibodies were tested in binding assay using adherent stable cell line expressing the target antigen hCXCR5.

human CXCR5 [6] = molecular target: T1, human CXCR5
human CXCR3 [7] = molecular target: T2, human CXCR3; experiment: flow cytometry (MFI) on hCXCR3
murine CXCR5 [8] = molecular target: T3, murine CXCR5; experiment: flow cytometry on cells transiently transfected with murine CXCR5
human CXCR5 [9] = molecular target: T1, human CXCR5; experiment: flow cytometry on CXCR5+ Raji cells, MFI

Chain of CD16 (P08637 17-254 limits assumed): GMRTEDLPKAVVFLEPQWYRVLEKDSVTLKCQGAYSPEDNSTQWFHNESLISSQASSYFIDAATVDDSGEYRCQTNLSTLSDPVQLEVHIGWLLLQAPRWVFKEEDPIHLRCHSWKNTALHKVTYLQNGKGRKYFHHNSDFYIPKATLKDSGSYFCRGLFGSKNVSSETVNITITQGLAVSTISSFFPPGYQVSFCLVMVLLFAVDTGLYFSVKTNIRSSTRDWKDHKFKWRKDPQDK

B1: HFB2-4hz9-hG1DE (antibody, V domains shown)
VH: QVQLQESGPGLVKPSETLSLTCTVSGFSLTSYGVSWVRQPPGKGLEWIGVIWGDGSTNYNPSLKSRVTISKDTSKNQVSLKLSSVTAADTAVYYCARVVYWGQGTLVTVSS
VL: DIVMTQSPLSLPVTPGEPASISCRSSKSLLHSNGKTYLYWFLQKPGQSPQLLIYRMSNLASGVPDRFSGSGSGTDFTLKISRVEAEDVGVYYCMQHLEYPYTFGGGTKVEIK
notes: Humanized (VH3/VL1), human IgG1 constant region with S239D/I332E (hG1DE)
- ADCC activity, EC50 (CD16): 1 to 2 pM
- EC50 (human CXCR5 [1]): 1.3 nM
- EC50 (human CXCR5 [2]): 1 nM

B2: HFB2-5-hG1 (antibody, V domains shown)
VH: QVQLKESGPGLVAPSQSLSITCTVSGFSLTSYGVSWVRQPPGKGLEWLGVIWGDGSTNYHSTLISRLSISKDNSKSQVFLKLNSLQTDDTATYYCARVAYWGQGTLVTVSA
VL: DIVMTQAAPSIPVTPGESVSISCRSSKSLLHSNGKTYLYWFLQRPGQSPQLLIYRMSNLASGVPDRFSGSGSGTAFTLRISRVEAEDVGVYYCMQHLEYPYTFGGGTKLEIK
notes: Mouse-human chimeric antibody, human IgG1 constant region
- binding result (human CXCR3 [3]): no binding
- binding result (murine CXCR5 [4]): no binding
- binding result (cynomolgus CXCR5): no binding (tested: about 150 nM)
- EC50 (human CXCR5 [5]): 3.43 nM

B3: HFB2-3-hG1 (antibody, V domains shown)
VH: QVQLKQSGPGLVQPSQSLSITCTVSGFSLTSYGVHWVRQSPGKGLEWLGVTWSGGRTDYNAAFISRLSINKDNSKSQVFFKMNSLQVNDTAIYYCARGGNYWGQGTSVTVSS
VL: not shown
notes: as for B2
- EC50 (human CXCR5 [6]): 0.569 nM
- binding result (human CXCR3 [7]): no binding (tested: about 150 nM)
- binding result (murine CXCR5 [8]): no binding (tested: about 150 nM)
- binding result (cynomolgus CXCR5): no binding (tested: about 150 nM)

B4: HFB2-4hz42hG1 (antibody, V domains shown)
VH: QVQLVQSGAEVKKPGASVKVSCKASGFSLTSYGVSWVRQAPGQGLEWMGVIWGDGSTNYAQKLQGRVTMTKDTSTSTAYMELRSLRSDDTAVYYCARVVYWGQGTLVTVSS
VL: EIVMTQSPATLSVSPGERATLSCRSSKSLLHSNGKTYLYWFQQKPGQAPRLLIYRMSNLASGIPARFSGSGSGTEFTLTISSVQSEDVAVYYCMQHLEYPYTFGQGTKLEIK
notes: Humanized, human IgG1 (hG1); also called HFB2-VH10VL6
- EC50 (read off the curve) (human CXCR5 [9]): ~0.3 nM

— US20240158517A1 (HIFIBIO HK, published 2024)
